Results on 34 molecules are retold here after US20130079278A1 (Novo Nordisk, published 2013).

*1 amine or outer side, *2 acyl side, *3 side chain or, on linkers, in order; H or OH if unused. Where no end group is shown, it is not given here. Side-chain parts run from the residue outwards. The star is where a group is joined. X1 = 4‑(16-(1H-tetrazol-5-yl)hexadecanoylsulfamoyl)butanoyl, O=C(CCCCCCCCCCCCCCCc1nnn[nH]1)NS(=O)(=O)CCCC(=O)*; X2 = 4‑(16-(1H-tetrazol-5-yl)hexadecanoylsulfamoyl)butanoyl, O=C(CCCCCCCCCCCCCCCc1nn[nH]n1)NS(=O)(=O)CCCC(=O)*; C18 diacid = O=C(O)CCCCCCCCCCCCCCCCC(=O)*; C16 diacid = O=C(O)CCCCCCCCCCCCCCC(=O)*; γGlu = O=C(O)[C@H](CCC(=O)[*:2])N[*:1]; AEEA = NCCOCCOCC(=O)O

First the molecules themselves.
B1: N^ε24-[(4S)-4-carboxy-4-[[(4S)-4-carboxy-4-[[2-[2-[2-[[2-[2-[2-[[(4S)-4-carboxy-4-(17-carboxyheptadecanoylamino)butanoyl]amino]ethoxy]ethoxy]acetyl]amino]ethoxy … (peptide)
peptide: HSQGTFTSDYSKYLESRRAQDFVK([γGlu-γGlu-AEEA-AEEA-γGlu-C18 diacid])WLLST-NH2
modifications: N-terminus assumed
SMILES: CC(C)C[C@H](NC(=O)[C@H](Cc1ccc(O)cc1)NC(=O)[C@H](CCCCN)NC(=O)[C@H](CO)NC(=O)[C@H](Cc1ccc(O)cc1)NC(=O)[C@H](CC(=O)O)NC(=O)[C@H](CO)NC(=O)[C@@H](NC(=O)[C@H](Cc1ccccc1)NC(=O)[C@@H](NC(=O)CNC(=O)[C@H](CCC(N)=O)NC(=O)[C@H](CO)NC(=O)[C@@H](N)Cc1c[nH]cn1)[C@@H](C)O)[C@@H](C)O)C(=O)N[C@@H](CCC(=O)O)C(=O)N[C@@H](CO)C(=O)N[C@@H](CCCNC(=N)N)C(=O)N[C@@H](CCCNC(=N)N)C(=O)N[C@@H](C)C(=O)N[C@@H](CCC(N)=O)C(=O)N[C@@H](CC(=O)O)C(=O)N[C@@H](Cc1ccccc1)C(=O)N[C@H](C(=O)N[C@@H](CCCCNC(=O)CC[C@H](NC(=O)CC[C@H](NC(=O)COCCOCCNC(=O)COCCOCCNC(=O)CC[C@H](NC(=O)CCCCCCCCCCCCCCCCC(=O)O)C(=O)O)C(=O)O)C(=O)O)C(=O)N[C@@H](Cc1c[nH]c2ccccc12)C(=O)N[C@@H](CC(C)C)C(=O)N[C@@H](CC(C)C)C(=O)N[C@@H](CO)C(=O)N[C@H](C(N)=O)[C@@H](C)O)C(C)C
B2: N^ε24-[(4S)-4-carboxy-4-[[2-[2-[2-[[2-[2-[2-[[(4S)-4-carboxy-4-[[(4S)-4-carboxy-4-(17-carboxyheptadecanoylamino)butanoyl]amino]butanoyl]amino]ethoxy]ethoxy]acet … (peptide)
peptide: HSQGTFTSDVSKYLDTRRAQEFVK([γGlu-AEEA-AEEA-γGlu-γGlu-C18 diacid])WLLST-NH2
modifications: N-terminus assumed
SMILES: CC(C)C[C@H](NC(=O)[C@H](Cc1c[nH]c2ccccc12)NC(=O)[C@H](CCCCNC(=O)CC[C@H](NC(=O)COCCOCCNC(=O)COCCOCCNC(=O)CC[C@H](NC(=O)CC[C@H](NC(=O)CCCCCCCCCCCCCCCCC(=O)O)C(=O)O)C(=O)O)C(=O)O)NC(=O)[C@@H](NC(=O)[C@H](Cc1ccccc1)NC(=O)[C@H](CCC(=O)O)NC(=O)[C@H](CCC(N)=O)NC(=O)[C@H](C)NC(=O)[C@H](CCCNC(=N)N)NC(=O)[C@H](CCCNC(=N)N)NC(=O)[C@@H](NC(=O)[C@H](CC(=O)O)NC(=O)[C@H](CC(C)C)NC(=O)[C@H](Cc1ccc(O)cc1)NC(=O)[C@H](CCCCN)NC(=O)[C@H](CO)NC(=O)[C@@H](NC(=O)[C@H](CC(=O)O)NC(=O)[C@H](CO)NC(=O)[C@@H](NC(=O)[C@H](Cc1ccccc1)NC(=O)[C@@H](NC(=O)CNC(=O)[C@H](CCC(N)=O)NC(=O)[C@H](CO)NC(=O)[C@@H](N)Cc1c[nH]cn1)[C@@H](C)O)[C@@H](C)O)C(C)C)[C@@H](C)O)C(C)C)C(=O)N[C@@H](CC(C)C)C(=O)N[C@@H](CO)C(=O)N[C@H](C(N)=O)[C@@H](C)O

The assay deals with glucagon receptor (human, UniProt P47871 26-477). Briefly: cell-based or functional assay.
Chain of glucagon receptor (P47871 26-477): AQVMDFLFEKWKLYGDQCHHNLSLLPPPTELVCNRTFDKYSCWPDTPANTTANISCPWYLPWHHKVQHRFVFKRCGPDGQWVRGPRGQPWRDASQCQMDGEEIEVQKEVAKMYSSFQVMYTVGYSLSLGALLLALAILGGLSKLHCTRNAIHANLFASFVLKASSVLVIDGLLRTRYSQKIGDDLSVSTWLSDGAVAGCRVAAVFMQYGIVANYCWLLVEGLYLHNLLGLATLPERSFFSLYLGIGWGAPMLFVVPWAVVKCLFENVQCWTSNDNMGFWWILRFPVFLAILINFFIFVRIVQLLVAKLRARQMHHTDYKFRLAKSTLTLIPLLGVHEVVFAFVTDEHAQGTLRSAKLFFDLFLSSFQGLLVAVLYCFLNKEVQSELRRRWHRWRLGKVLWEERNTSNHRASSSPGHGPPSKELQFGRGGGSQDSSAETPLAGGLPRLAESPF
Turning to HSQGTFTSDYSKYLDVRRAQDFVK([γGlu-γGlu-AEEA-AEEA-γGlu-C18 diacid])WLLNT, the “Assay (I) Glucagon [EC50]” value was 0.081 nM.
The value for B1 was 0.134 nM; that for HSQGTFTSDVSKYLDTRRAQEFVK([AEEA-AEEA-γGlu-γGlu-γGlu-C18 diacid])WLLST was 0.08 nM.
The value for HSQGTFTSDYSRYLDIRRAQEFVK([γGlu-γGlu-AEEA-AEEA-γGlu-C18 diacid])WLEST was 0.099 nM; that for HSQGTFTSDVSRYLDTRRAQEFVK([γGlu-AEEA-AEEA-γGlu-γGlu-C18 diacid])WLLST was 0.176 nM; that for HSQGTFTSDYSRYLDLRRAQDFVK([γGlu-γGlu-AEEA-AEEA-X1])WLLST was 0.357 nM.
Take HSQGTFTSDYSRYLESRRAQEFVK([γGlu-γGlu-AEEA-AEEA-γGlu-C18 diacid])WLLST: the “Assay (I) Glucagon [EC50]” value was determined as 0.289 nM.
The value for HSQGTFTSDYSRYLDLRRAQDFVK([γGlu-γGlu-AEEA-AEEA-γGlu-X2])WLLST was 0.231 nM; that for HSQGTFTSDYSKYLESRRAQEFVK([γGlu-γGlu-γGlu-γGlu-C18 diacid])WLLST was 0.169 nM; that for HSQGTFTSDYSRYLDARRAQDFVK([γGlu-γGlu-γGlu-C16 diacid])WLLST was 0.016 nM.
The value for HSQGTFTSDYSRYLDLRRAQDFVK([γGlu-γGlu-γGlu-γGlu-C16 diacid])WLLST was 0.109 nM; that for HSQGTFTSDYSKYLESRRAQDFVK([γGlu-γGlu-AEEA-X1])WLLST was 0.395 nM.
The value for HSQGTFTSDYSRYLDLRRAQDFVK([γGlu-γGlu-γGlu-AEEA-AEEA-γGlu-C18 diacid])WLLST was 0.243 nM; that for HSQGTFTSDYSKYLDARRAQDFVK([γGlu-γGlu-AEEA-AEEA-γGlu-C18 diacid])WLEST was 0.07 nM.
As to HSQGTFTSDYSRYLESRRAQEFVK([γGlu-γGlu-AEEA-AEEA-γGlu-C18 diacid])WLEST, the “Assay (I) Glucagon [EC50]” value worked out at 1.09 nM.
The value for HSQGTFTSDYSRYLDLRRAQDFVK([γGlu-γGlu-AEEA-AEEA-γGlu-C18 diacid])WLLQT was 0.204 nM; that for HSQGTFTSDYSRYLDARRAQDFVK([γGlu-γGlu-γGlu-γGlu-C16 diacid])WLLST was 0.106 nM; that for HSQGTFTSDVSRYLESRRAQEFVK([γGlu-γGlu-AEEA-AEEA-γGlu-C18 diacid])WLEST was 1.63 nM.
With HSQGTFTSDYSKYLESRRAQDFVK([γGlu-γGlu-AEEA-AEEA-γGlu-C18 diacid])WLLQT the figure was 0.517 nM; with HSHGTFTSDYSKYLDSRRAQDFVK([γGlu-γGlu-AEEA-AEEA-γGlu-C18 diacid])WLLNT, 0.105 nM; with HSQGTFTSDYSRYLESRRAQDFVK([γGlu-γGlu-AEEA-AEEA-γGlu-C16 diacid])WLLST, 0.14 nM.
The value for HSQGTFTSDYSKYLESRRAQDFVK([γGlu-γGlu-AEEA-AEEA-γGlu-C18 diacid])WLEST was 0.682 nM; that for HSQGTFTSDVSKYLDLRRAQEFVK([γGlu-AEEA-AEEA-γGlu-γGlu-C18 diacid])WLLST was 0.088 nM; that for HSQGTFTSDVSKYLESRRAQEFVK([γGlu-γGlu-γGlu-γGlu-C18 diacid])WLLST was 0.118 nM.
Turning to HSQGTFTSDYSRYLDTRRAQDFVK([γGlu-γGlu-AEEA-AEEA-γGlu-C18 diacid])WLEST, the “Assay (I) Glucagon [EC50]” value was 0.176 nM.
With HSQGTFTSDYSRYLDLRRAQDFVK([γGlu-γGlu-AEEA-AEEA-γGlu-C18 diacid])WLEST the figure was 0.136 nM; with HSHGTFTSDYSKYLDSKRAQEFVK([γGlu-γGlu-AEEA-γGlu-C18 diacid])WLLST, 0.077 nM.
In the case of HSQGTFTSDYSKYLDARRAQDFVK([γGlu-γGlu-AEEA-AEEA-γGlu-C18 diacid])WLLQT, the “Assay (I) Glucagon [EC50]” value was 0.192 nM.
The value for HSQGTFTSDYSKYLESRRAQDFVK([γGlu-γGlu-AEEA-γGlu-X1])WLLST was 0.362 nM; that for HSQGTFTSDYSRYLDLRRAQEFVK([γGlu-γGlu-AEEA-AEEA-γGlu-C18 diacid])WLLST was 0.095 nM; that for HSQGTFTSDYSKYLESRRAQDFVK([γGlu-γGlu-AEEA-AEEA-γGlu-C16 diacid])WLLST was 0.071 nM.
Take HSQGTFTSDYSRYLESRRAQEFVK([γGlu-γGlu-AEEA-AEEA-γGlu-C16 diacid])WLLST: the “Assay (I) Glucagon [EC50]” value was determined as 0.072 nM.
The value for B2 was 0.156 nM.
Turning to HSQGTFTSDYSRYLESRRAQEFVK([γGlu-γGlu-γGlu-γGlu-C18 diacid])WLLST, the “Assay (I) Glucagon [EC50]” value came out at 0.148 nM.
